Measurements from patent publication US20250152627A1 (published 2025).

What was measured:
[1] = target: IgK leader-ALFA Tag-RR Zip-Myc Tag-PDGFRβ TM-sfGFP; test: flow cytometry cell binding
[2] = target: IgK leader-ALFA Tag-RR Zip-Myc Tag-PDGFRβ TM-sfGFP; test: flow

Row | Binder | Kd [1] | Kd [2]
1 | BT4244-35 aa Linker-EE Zip (enzyme) FSISEEYLIQNLDKSSTSVQIPINTSMELAQWSVSYEANWLQCSKQKTAAEGTFLRITVNENTGETKRTANIKVTSTTATYTITVNQYAKGEVIVEGDIKVTPTGGKASEHQEGQDIENTYDGKFSTDGAAPFHTPWGQSAKFPVTLEYYFKGDTEIDYLIYYTRSGNGNFGKVKVYTTTNPDRSDYTLQGEYDFKEQNAPSKVSFSEGIKATGIKFEVLSGLGDFVSCDEMEFYKTNTDKTLDKQLLTVFTDITCTEIKNNVTNEQIQALPDYFVRIAEAVRDNTYDKWEKEFRIRSYEPYSNIAEWADKLMTKKYSDLDNPTGISVKAGDDIIVLVGDTYGQNISMQCIWETGTEYKQTASSGDVYMLNPGVNKLTMKGEGQLFVMYNTELTSNTAKPIKIHIPLGSGTVNGFFDLKEHKTDEKYAELLKKSTHKYFCIRGEKIMFYFHRNKLLEYVPNNILSAIHLWDNIVGWQQELMGIDDVRPSQVNNHLFAISPEGSYMWASDYQIGFVYTYLGNILLEDNVMAAEDNAWGPAHEIGHVHQAAINWASSTESSNNLFSNFIIYKLGKYKSRGNGLGSVATARYANGQAWYNMGDATHQNEDTETHMRMNWQLWIYYHRCEYKTDFWQTLFKLMREVNMTEGEDPGKKQLEFAKMASKAANQNLTDFFEMWGFFEPVNTTIEQYGTYKYYVSDAMIREAKEYMAQFPAPKHAFQYIEDRKKSEFPSNDYRYSAVGDVGYYTQFKENQKITKAITAELAGRKVSIQNGDEAVAFELRENDENGKLLYFSTFTTFEIPSSILMGGGGSGGGGSGGGGSGGGGSGGGGSGGGGSGGGGSMDPDLEIEAAFLERENTALETRVAELRQRVQRLRNRVSQYRTRYGPLGGGK | ~2.54 nM | –
2 | AM0627-35 aa Linker-EE Zip (enzyme) ANTPEHIGNDLKLFKDSSCTSLKPDVKNTSAFQSDAMKELATKILAGHYKPDYLYAEYRALPSPRQTGKNLRIGDGFSKYDNMTGVYLEKGRHVVLVGKTEGQEISLLLPNLMRKPAEGVQPTKDPNGWGLHKKQIPLKEGINIIDVETPANAYISYFTEDAGKAPKIPVHFVTGKANGYFDTTRGDTNKDWVRLLDQAVSPIMDARGKYIQVAYPVEFLKKFTKDRGTELINAYDKLIGIQYQLMGLDKYGKIPENRVLARVNFNYYMFRDGDGVAYLGNDGTMRMVTDPENVLKGDACWGFSHEVGHVMQMRPMTWGGMTEVSNNIFSLQAAAKTGNESRLKRQGSYDKARKEIIEGEIAYLQSKDVFNKLVPLWQLHLYFTKNGHPDFYPDVMEYLRNNAGNYGGNDTVKYQFEFVKACCDVTKTDLTDFFEKWGFFKPGKFHIGDYAQYDFNVTPEMVEETKKWIAGKGYPKPETDITELSEGGGGSGGGGSGGGGSGGGGSGGGGSGGGGSGGGGSMDPDLEIEAAFLERENTALETRVAELRQRVQRLRNRVSQYRTRYGPLGGGK | ~0.45 nM | –
3 | StcE ΔX409-35 aa Linker-EE Zip (enzyme) ADNNSAIYFNTSQPINDLQGSLAAEVKFAQSQILPAHPKEGDSQPHLTSLRKSLLLVRPVKADDKTPVQVEARDDNNKILGTLTLYPPSSLPDTIYHLDGVPEGGIDFTPHNGTKKIINTVAEVNKLSDASGSSIHSHLTNNALVEIHTANGRWVRDIYLPQGPDLEGKMVRFVSSAGYSSTVFYGDRKVTLSVGNTLLFKYVNGQWFRSGELENNRITYAQHIWSAELPAHWIVPGLNLVIKQGNLSGRLNDIKIGAPGELLLHTIDIGMLTTPRDRFDFAKDKEAHREYFQTIPVSRMIVNNYAPLHLKEVMLPTGELLTDMDPGNGGWHSGTMRQRIGKELVSHGIDNANYGLNSTAGLGENSHPYVVAQLAAHNSRGNYANGIQVHGGSGGGGIVTLDSTLGNEFSHEVGHNYGLGHYVDGFKGSVHRSAENNNSTWGWDGDKKRFIPNFYPSQTNEKSCLNNQCQEPFDGHKFGFDAMAGGSPFSAANRFTMYTPNSSAIIQRFFENKAVFDSRSSTGFSKWNADTQEMEPYEHTIDRAEQITASVNELSESKMAELMAEYAVVKVHMWNGNWTRNIYIPTASADNRGSILTINHEAGYNSYLFINGDEKVVSQGYKKSFVSDGQFWKERDVVDTREARKPEQFGVPVTTLVGYYDPEGTLSSYIYPAMYGAYGFTYSDDSQNLSDNDCQLQVDTKEGQLRFRLANHRANNTVMNKFHINVPTESQPTQATLVCNNKILDTKSLTPAPEGLTYTVNGGGGSGGGGSGGGGSGGGGSGGGGSGGGGSGGGGSMDPDLEIEAAFLERENTALETRVAELRQRVQRLRNRVSQYRTRYGPLGGGK | – | ~3.09 nM
